6 molecules from patent publication US20210095036A1 (University of Pennsylvania, published 2021) can be followed below.

First the molecules themselves.
T1: GFRα4 isoform a (GFRα4a), Fc fusion with 6 His (human)
T1 construct: the entry holds the whole fusion; also called GFR4α4a; immobilized GFRα4 isoform a
T1 chain: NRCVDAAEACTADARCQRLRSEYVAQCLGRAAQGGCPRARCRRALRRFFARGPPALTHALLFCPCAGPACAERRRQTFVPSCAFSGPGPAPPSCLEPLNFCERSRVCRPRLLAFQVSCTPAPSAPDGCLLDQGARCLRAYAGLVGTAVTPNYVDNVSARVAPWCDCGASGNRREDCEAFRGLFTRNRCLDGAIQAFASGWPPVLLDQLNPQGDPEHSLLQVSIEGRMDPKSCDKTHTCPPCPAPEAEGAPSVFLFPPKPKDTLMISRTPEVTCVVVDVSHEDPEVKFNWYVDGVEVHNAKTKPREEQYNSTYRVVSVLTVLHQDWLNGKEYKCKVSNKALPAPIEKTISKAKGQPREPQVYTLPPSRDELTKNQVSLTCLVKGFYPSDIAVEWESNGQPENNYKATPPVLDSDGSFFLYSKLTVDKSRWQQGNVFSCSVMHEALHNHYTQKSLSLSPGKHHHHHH

T2: human GFRα4 isoform a (GFRα4a) on transduced cells (human, UniProt Q9GZZ7-2 21-248)
T2 construct: whole, on cells; also called Nalm6 cells expressing the GFRα4 isoform a
T2 sequence (looked up): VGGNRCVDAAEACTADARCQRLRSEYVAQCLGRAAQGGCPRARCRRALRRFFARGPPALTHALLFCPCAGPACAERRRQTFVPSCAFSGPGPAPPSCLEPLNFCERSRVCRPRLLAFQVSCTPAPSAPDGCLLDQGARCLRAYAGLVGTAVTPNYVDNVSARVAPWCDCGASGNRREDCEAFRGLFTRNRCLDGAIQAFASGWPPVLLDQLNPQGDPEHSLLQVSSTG

B1: CD19-Fc (Fc fusion, UniProt P15391 20-291, looked up)
chain: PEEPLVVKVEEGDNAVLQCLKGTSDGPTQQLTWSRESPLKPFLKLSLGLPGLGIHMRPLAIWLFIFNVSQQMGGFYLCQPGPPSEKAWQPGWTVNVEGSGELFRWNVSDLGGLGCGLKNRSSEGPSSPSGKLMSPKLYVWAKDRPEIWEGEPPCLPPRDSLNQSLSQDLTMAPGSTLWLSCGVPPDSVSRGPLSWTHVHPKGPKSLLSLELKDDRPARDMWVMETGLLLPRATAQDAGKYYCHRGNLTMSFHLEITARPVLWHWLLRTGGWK
notes: The words recombinant human Fc-fusions leave open whether human means the Fc or the antigen; also called recombinant human Fc-fusion of CD19 antigen; Fc-conjugated soluble CD19; not shown: human Fc
B2: 0.410HC.410LC (scFv)
scFv: QFVLTQSPSVSAALGASAKLTCTLSSAHKTYTIDWYQQQQGEAPRYLMQVKSDGSYTKGTGVPDRFSGSSSGADRYLIIPSVQADDEAGYVCGADDNGGYVFGGGTQLTVTGGGSSRSSSSGGGGSGGGGQSVKESEGGLFKPTDTLTLTCTVSGFSLSRHALTWVRQAPGNGLEWIGAIDNAGTTYYASWAKSRSTITRNTDLHTVTLKMTSLTASDTATYFCARVFYDINSGYYLDGMDLWGPGTLVTVSS
notes: pIII not in the entry; order Vλ-linker-VH; positive control; also called original rabbit P4-10 scFv; scFv 0
B3: CAR P4-10, the original rabbit GFRα4-directed CAR (other)
VH: QSVKESEGGLFKPTDTLTLTCTVSGFSLSRHALTWVRQAPGNGLEWIGAIDNAGTTYYASWAKSRSTITRNTDLHTVTLKMTSLTASDTATYFCARVFYDINSGYYLDGMDLWGPGTLVTVSS
VL: QFVLTQSPSVSAALGASAKLTCTLSSAHKTYTIDWYQQQQGEAPRYLMQVKSDGSYTKGTGVPDRFSGSSSGADRYLIIPSVQADDEAGYVCGADDNGGYVFGGGTQLTVT
notes: Chimeric antigen receptor on transduced human T cells, one chain in fact; also called P410bbz; P4-10 CAR
B4: P4-10 antibody (full-length rabbit IgG containing the P4-10 rabbit variable regions) (antibody, V domains shown)
VH: B3 VH
VL: B3 VL
notes: Full-length rabbit IgG, lambda light chain; also called anti-GFRα4 P4-10 antibody; rabbit P4-10
B5: 23.H1.L2m1 (scFv)
scFv: QFVLTQPPSASGTPGQRVTISCTLSSAHKTYTIDWYQQLPGTAPKLLIYVKSDGSYTKGTGVPDRFSGSSSGADRYLAISGLQSEDEADYYCGADDNGGYVFGGGTQLTVTGGGSSRSSSSGGGGSGGGGQVQLQESGPGLVKPSETLSLTCAVSGYSISRHALTWIRQPPGKGLEWIGAIDNAGTTYYASWAKSRVTISVDTSKNQFSLKLSSVTAADTAVYYCARVFYDINSGYYLDGMDLWGPGTLVTVSS
notes: pIII not in the entry; order Vλ-linker-VH; also called scFv 23
B6: 3.H1m1.L3 (scFv)
scFv: QSALTQPASVSGSPGQSITISCTGTSAHKTYTVSWYQQHPGKAPKLMIYVKSDGSYNRPSGVSNRFSGSKSGNTASLTISGLQAEDEADYYCGADDNGGYVFGGGTKLTVLGGGSSRSSSSGGGGSGGGGQQSVKESGPGLVKPSETLSLTCAVSGFSLSRHALTWVRQPPGKGLEWIGAIDNAGTTYYASWAKSRVTISRNTDLHTVSLKLSSVTAADTAVYFCARVFYDINSGYYLDGMDLWGPGTLVTVSS
notes: pIII not in the entry; order Vλ-linker-VH; also called scFv 3; H1m.L3

Test [1] addresses T3, CAR-25 (human, UniProt P01732 183-206; Q07011 214-255; P20963 52-163).
T3 construct: domain: transmembrane domain;domain: 4-1BB domain;domain: CD3zeta domain; Chimeric antigen receptor on transduced human T cells; also called pTRPE-C25-gs-BBz
Kind of test: flow cytometry of CAR T cells stained with Fc-fusion antigen and anti-human Fc-specific antibodies. On the procedure:
(§1) To create CAR-T expressing cells, human T cells from healthy donors were activated with anti-CD3 and anti-CD28 coated paramagnetic beads (DYNABEADS® Human T-Activator CD3/CD28, Life Technologies). One day following activation, cells were transduced with lentiviral vectors encoding GFRα4-directed CARs (original rabbit P4-10 and humanized versions), a CD19-directed control CAR (FMC63(cd8)bbz), or were left non-transduced (NTD). Cells were expanded and on day 7, cells were evaluated for cell-surface expression of the CARs by flow cytometry (FACSCalibur, BD Biosciences, Franklin Lakes, N.J.). Fluorescently-labeled goat anti-rabbit antibodies detected CAR P4-10, the original rabbit GFRα4-directed CAR, and fluorescently-labeled Protein L detected the murine CD19-directed CAR (FIG. 19A, “P410” and “19bbz”, respectively). Fluorescently-labeled rabbit anti-human antibodies (“RaH”) detected CARs 10, 14, 25, and 29 (FIG. 19B). Expression of cell-surface CARs were also detected by staining with antigen using recombinant human Fc-fusions of GFRα4 or CD19 antigen followed by detection of bound antigen with fluorescently-labeled anti-human Fc-specific antibodies (FIG. 19C). Appropriately, CD19-Fc only bound to CD19-directed CARs while GFRα4-Fc bound to both rabbit P4-10 and humanized P4-10 CARs but not the CD19-directed CAR.
(In flow cytometry, cells or beads pass a laser one at a time.)

Test [2] has as its target T4, CAR-10 (human, UniProt P01732 183-206; Q07011 214-255; P20963 52-163).
T4 construct: domain: transmembrane domain;domain: 4-1BB domain;domain: CD3zeta domain; Chimeric antigen receptor on transduced human T cells; also called CAR10bbz; pTRPE-C10-gs-BBz
The test is described as above. Here is the method:
as §1

The target in test [3] is T5, CAR-14 (human, UniProt P01732 183-206; Q07011 214-255; P20963 52-163).
T5 construct: domain: transmembrane domain;domain: 4-1BB domain;domain: CD3zeta domain; Chimeric antigen receptor on transduced human T cells; also called pTRPE-C14-gs-BBz
T5 sequence (P01732 other isoform, or with tags, fused parts or gaps limits assumed): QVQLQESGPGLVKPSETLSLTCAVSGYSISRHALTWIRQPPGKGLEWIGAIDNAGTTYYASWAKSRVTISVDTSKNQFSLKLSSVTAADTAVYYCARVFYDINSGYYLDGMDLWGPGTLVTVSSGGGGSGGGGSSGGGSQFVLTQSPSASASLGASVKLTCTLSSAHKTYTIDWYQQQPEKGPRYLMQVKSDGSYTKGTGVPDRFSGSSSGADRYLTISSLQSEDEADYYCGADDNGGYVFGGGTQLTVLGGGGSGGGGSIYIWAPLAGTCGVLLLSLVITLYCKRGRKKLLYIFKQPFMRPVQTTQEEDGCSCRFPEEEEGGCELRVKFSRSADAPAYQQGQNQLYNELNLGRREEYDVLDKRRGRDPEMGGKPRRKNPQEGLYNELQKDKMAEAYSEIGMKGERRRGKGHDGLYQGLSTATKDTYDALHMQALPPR
The test is described as above. On the procedure:
as §1

In test [4] the target is T6, CAR-29 (human, UniProt P01732 183-206; Q07011 214-255; P20963 52-163).
T6 construct: domain: transmembrane domain;domain: 4-1BB domain;domain: CD3zeta domain; Chimeric antigen receptor on transduced human T cells; also called pTRPE-C29-gs-BBz
T6 sequence (P01732 other isoform, or with tags, fused parts or gaps limits assumed): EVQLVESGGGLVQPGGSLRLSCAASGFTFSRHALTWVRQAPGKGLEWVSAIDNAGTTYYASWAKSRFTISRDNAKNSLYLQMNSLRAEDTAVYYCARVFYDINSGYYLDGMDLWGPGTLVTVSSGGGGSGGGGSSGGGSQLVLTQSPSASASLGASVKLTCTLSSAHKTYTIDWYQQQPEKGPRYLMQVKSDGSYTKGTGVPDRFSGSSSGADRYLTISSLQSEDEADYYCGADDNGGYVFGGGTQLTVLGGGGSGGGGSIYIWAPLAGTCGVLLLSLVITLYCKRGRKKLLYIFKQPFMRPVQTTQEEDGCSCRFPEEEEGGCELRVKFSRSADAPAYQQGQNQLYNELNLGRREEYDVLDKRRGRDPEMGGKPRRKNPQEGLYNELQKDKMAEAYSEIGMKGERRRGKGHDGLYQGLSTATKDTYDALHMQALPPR
The test is described as above. Here is the method: as §1

Test [5] concerns the target T1, GFRα4 isoform a (GFRα4a), Fc fusion …. Put plainly: phage ELISA, immobilized GFRα4a (FIG. 6). An excerpt: (§2) To perform these ELISAs, the GFRα4a isoform comprising a portion of GFRα4a (Asn24 -Ser245, UniProt accession #Q9GZZ7-2) was used, followed by a Factor Xa cleavage site/linker, a portion of optimized IgG1 Fc domain (Pro100-Lys330), and 6 His residues for purification. The GFRα4b isoform comprised a portion of GFRα4b (Asn24-Va1274, UniProt #Q9GZZ7-1), followed by a TEV cleavage site linker, and a portion of human IgG1 Fc domain (Asp104-Lys330).
(§3) Binding of the positive scFvs from this experiment were also screened for binding to GFRα4b (FIG. 7). […] As observed in previous ELISAs of this type with the original rabbit P4-10 expressed as an antibody fragment on phage, reactivity always appears greater against the GFRα4b isoform.
Background: In an ELISA, binding on a coated surface is turned into a signal by an enzyme label.

Test [6] has as its target T7, GFRα4 isoform b (GFRα4b), Fc fusion (human).
T7 construct: the entry holds the whole fusion; also called GFR4α4b; GFRα4-Fc
Put plainly: phage ELISA, immobilized GFRα4b against GFRα4a.
Excerpt: as §2, §3

Test [7] concerns the target T7, GFRα4 isoform b (GFRα4b), Fc fusion. Kind of test: flow cytometry of CAR T cells stained with Fc-fusion antigen and anti-human Fc-specific antibodies (FIG. 19C). On the procedure:
as §1

Test [8] addresses B1. Put plainly: flow cytometry of CAR T cells stained with Fc-fusion antigen and anti-human Fc-specific antibodies. On the procedure:
as §1

The target of test [9] is T2, human GFRα4 isoform a (GFRα4a) on …. Kind of test: flow cytometry and sorting of Nalm6 cells transduced with human GFRα4a-T2A-GFP. On the procedure: Cytotoxicity of target cells by GFRα4-directed CAR-T cells was evaluated using a 51Cr release-assay. Target cells comprised either Nalm6 cells (a CD19-expressing B-cell precursor leukemia cell line (ATCC® CRL-3273TM)), Nalm6 cells expressing the GFRα4 isoform a (GFRα4a) or isoform b (GFRα4b), or TT cells (a human medullary thyroid cancer cell line (ATCC® CRL-1803TM)). Nalm6 cells expressing GFRα4 proteins were produced by transduction with lentiviral vectors encoding human GFRα4a-T2A-GFP or human GFRα4b-T2A-GFP (Milone et al. (2009) Molecular Therapy., 17: 1453-1464). […] P4-10 antibody comprised a full-length rabbit IgG containing the P4-10 rabbit variable regions and was a gift of Novartis Pharmaceuticals.

The target in test [10] is T7, GFRα4 isoform b (GFRα4b), Fc fusion. Kind of test: phage ELISA, immobilized GFRα4b; second token of the cell.
Excerpt: as §2
Target sequence in this assay (chain, as listed by the source limits assumed): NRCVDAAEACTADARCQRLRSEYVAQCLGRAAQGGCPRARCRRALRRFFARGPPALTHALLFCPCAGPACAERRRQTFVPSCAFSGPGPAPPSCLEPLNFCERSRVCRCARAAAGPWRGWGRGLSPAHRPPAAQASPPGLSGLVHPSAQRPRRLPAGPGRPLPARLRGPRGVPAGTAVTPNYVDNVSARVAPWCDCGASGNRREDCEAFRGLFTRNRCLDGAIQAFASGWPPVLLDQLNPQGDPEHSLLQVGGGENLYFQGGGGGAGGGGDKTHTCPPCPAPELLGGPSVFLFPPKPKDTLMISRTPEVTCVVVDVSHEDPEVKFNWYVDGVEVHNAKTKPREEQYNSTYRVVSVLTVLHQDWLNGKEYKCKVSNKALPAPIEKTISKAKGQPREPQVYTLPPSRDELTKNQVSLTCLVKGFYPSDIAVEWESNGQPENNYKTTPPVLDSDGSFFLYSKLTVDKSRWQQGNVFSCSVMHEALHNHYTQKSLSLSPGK

The target in test [11] is T1, GFRα4 isoform a (GFRα4a), Fc fusion …. Put plainly: phage ELISA, immobilized GFRα4a; first token of the cell (W weak binding).
Excerpt: as §2

The target is the same in test [12]. Kind of test: phage ELISA, immobilized GFRα4a; first token of the cell (GFRα4b: NT).
Excerpt: as §2

T4 sequence (P01732 other isoform, or with tags, fused parts or gaps limits assumed): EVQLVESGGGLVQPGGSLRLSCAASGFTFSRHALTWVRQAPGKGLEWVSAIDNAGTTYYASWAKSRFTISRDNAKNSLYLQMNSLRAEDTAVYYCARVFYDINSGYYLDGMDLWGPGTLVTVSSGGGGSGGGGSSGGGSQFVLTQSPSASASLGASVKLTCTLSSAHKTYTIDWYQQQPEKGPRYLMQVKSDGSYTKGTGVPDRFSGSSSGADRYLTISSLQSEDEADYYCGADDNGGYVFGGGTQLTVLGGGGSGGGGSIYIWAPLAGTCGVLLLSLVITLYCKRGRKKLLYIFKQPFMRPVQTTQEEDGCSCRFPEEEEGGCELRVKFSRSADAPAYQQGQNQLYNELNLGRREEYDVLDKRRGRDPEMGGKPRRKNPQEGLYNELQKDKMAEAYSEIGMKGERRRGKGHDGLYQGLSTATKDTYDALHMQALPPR
T3 sequence (P01732 other isoform, or with tags, fused parts or gaps limits assumed): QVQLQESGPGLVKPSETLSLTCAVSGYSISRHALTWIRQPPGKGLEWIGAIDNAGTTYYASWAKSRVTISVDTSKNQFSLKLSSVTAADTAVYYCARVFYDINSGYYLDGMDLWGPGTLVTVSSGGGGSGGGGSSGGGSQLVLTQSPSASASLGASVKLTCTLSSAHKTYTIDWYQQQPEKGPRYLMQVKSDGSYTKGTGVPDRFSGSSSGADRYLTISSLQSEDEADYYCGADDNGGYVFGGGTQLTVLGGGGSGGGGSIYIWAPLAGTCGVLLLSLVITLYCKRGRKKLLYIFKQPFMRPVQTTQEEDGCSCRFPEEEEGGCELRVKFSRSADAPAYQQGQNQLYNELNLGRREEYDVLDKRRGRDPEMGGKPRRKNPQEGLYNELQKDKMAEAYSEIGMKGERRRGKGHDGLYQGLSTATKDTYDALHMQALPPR

Consider B1, for which the binding result in [1], in test [2], in [3] and in test [4] was “no binding” throughout.

Turning to B2, the binding result in test [5] and in test [6] was “binds” throughout.

Regarding B3, the figures for the binding result in test [7] and in test [8] were “binds” and “no binding”, respectively.

As for B4, in test [9], the binding result is “binds”.

Regarding B5, the binding result in test [10] and in test [11] was “binds” each time.

Consider B6, for which, in test [12], the binding result was “no binding”.
